From patent publication US20250368745A1 (published 2025)
Changes are numbered by the printed parent chain.

T1: human IL-18BP (human, UniProt O95998 31-194)
T1 construct: UniProt printed as 095998; also called hIL-18BP
T1 sequence: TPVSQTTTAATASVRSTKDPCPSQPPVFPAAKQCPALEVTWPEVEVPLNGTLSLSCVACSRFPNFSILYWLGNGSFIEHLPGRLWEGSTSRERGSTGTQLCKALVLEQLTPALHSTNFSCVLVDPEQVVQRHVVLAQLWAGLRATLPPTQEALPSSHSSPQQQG

T2: cynomolgus IL-18BP (cynomolgus monkey)
T2 construct: also called cyno IL-18BP; cyIL-18BP
T2 chain: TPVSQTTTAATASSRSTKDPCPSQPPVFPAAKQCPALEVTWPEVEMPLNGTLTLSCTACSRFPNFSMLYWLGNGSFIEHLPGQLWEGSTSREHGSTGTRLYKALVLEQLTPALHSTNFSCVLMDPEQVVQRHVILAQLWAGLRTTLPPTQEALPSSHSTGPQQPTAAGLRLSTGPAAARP

T3: cynomolgus IL-18BP (cynomolgus monkey)
T3 construct: Generated in-house; also called cyIL-18BP; cyno IL-18BP
T3 chain: T2 chain

T4: human IL-18BP (interleukin-18 binding protein, isoform A) (human, UniProt O95998 31-194)
T4 construct: cell assays used Sino Biological 10357-H08H; PBMC assay 1 relies on endogenous IL-18BP; UniProt number is printed as 095998; also called hIL-18BP
T4 sequence: T1 sequence

B1: SA301a HC-I51L (antibody, name in Kabat numbering, V domains shown)
VH: QVQLQESGPGLVKPSQTLSLTCTVSGYSITSDYNSHWIRQPPGKGLEWIGYLHYSGSTNYNPSLKSRVTISRDTSKNQFSLKLSSVTAADTAVYYCARNYGSIYVNYFDYWGQGTLVTVSS
VL: EIVLTQSPATLSLSPGERATLSCSASSSVSYMYWYQQKPGQAPRPLIYRTSNLASGIPARFSGSGSGTDFTLTISSLEPEDFAVYYCQQYHSYPTFGGGTKVEIK
notes: IgG1 kappa
B2: SA301a HC-Y50M (antibody, name in Kabat numbering, V domains shown)
VH: B1 VH with Y51M, L52I
VL: B1 VL
notes: IgG1 kappa
B3: SA301a HC-Y50D (antibody, name in Kabat numbering, V domains shown)
VH: B1 VH with Y51D, L52I
VL: B1 VL
notes: IgG1 kappa
B4: SA301a HC-I51R (antibody, name in Kabat numbering, V domains shown)
VH: B1 VH with L52R
VL: B1 VL
notes: IgG1 kappa
B5: SA301a HC-Y50A (antibody, name in Kabat numbering, V domains shown)
VH: B1 VH with Y51A, L52I
VL: B1 VL
notes: IgG1 kappa
B6: SA301a HC-Y50E (antibody, name in Kabat numbering, V domains shown)
VH: B1 VH with Y51E, L52I
VL: B1 VL
notes: IgG1 kappa
B7: SA301a HC-Y50S (antibody, name in Kabat numbering, V domains shown)
VH: B1 VH with Y51S, L52I
VL: B1 VL
notes: IgG1 kappa
B8: SA301a HC-Y50Q (antibody, name in Kabat numbering, V domains shown)
VH: B1 VH with Y51Q, L52I
VL: B1 VL
notes: IgG1 kappa
B9: SA301a HC-Y50K (antibody, name in Kabat numbering, V domains shown)
VH: B1 VH with Y51K, L52I
VL: B1 VL
notes: IgG1 kappa
B10: SA301a HC-Y50P (antibody, name in Kabat numbering, V domains shown)
VH: B1 VH with Y51P, L52I
VL: B1 VL
notes: IgG1 kappa
B11: SA301a HC-I51S (antibody, name in Kabat numbering, V domains shown)
VH: B1 VH with L52S
VL: B1 VL
notes: IgG1 kappa
B12: SA301a HC-I51T (antibody, name in Kabat numbering, V domains shown)
VH: B1 VH with L52T
VL: B1 VL
notes: IgG1 kappa
B13: SA301a HC-I51Y (antibody, name in Kabat numbering, V domains shown)
VH: B1 VH with L52Y
VL: B1 VL
notes: IgG1 kappa
B14: SA301a HC-Y50G (antibody, name in Kabat numbering, V domains shown)
VH: B1 VH with Y51G, L52I
VL: B1 VL
notes: IgG1 kappa
B15: SA301a HC-I51M (antibody, name in Kabat numbering, V domains shown)
VH: B1 VH with L52M
VL: B1 VL
notes: IgG1 kappa
B16: SA301a HC-Y50L (antibody, name in Kabat numbering, V domains shown)
VH: B1 VH with Y51L, L52I
VL: B1 VL
notes: IgG1 kappa
B17: SA301a HC-I51V (antibody, name in Kabat numbering, V domains shown)
VH: B1 VH with L52V
VL: B1 VL
notes: IgG1 kappa
B18: SA301a HC-I51K (antibody, name in Kabat numbering, V domains shown)
VH: B1 VH with L52K
VL: B1 VL
notes: IgG1 kappa
B19: SA301a HC-Y50I (antibody, name in Kabat numbering, V domains shown)
VH: B1 VH with Y51I, L52I
VL: B1 VL
notes: IgG1 kappa
B20: SA301a HC-Y50H (antibody, name in Kabat numbering, V domains shown)
VH: B1 VH with Y51H, L52I
VL: B1 VL
notes: IgG1 kappa
B21: SA301a HC-I51P (antibody, name in Kabat numbering, V domains shown)
VH: B1 VH with L52P
VL: B1 VL
notes: IgG1 kappa
B22: SA301a HC-Y50F (antibody, name in Kabat numbering, V domains shown)
VH: B1 VH with Y51F, L52I
VL: B1 VL
notes: IgG1 kappa
B23: SA301a HC-Y50V (antibody, name in Kabat numbering, V domains shown)
VH: B1 VH with Y51V, L52I
VL: B1 VL
notes: IgG1 kappa
B24: SA301a HC-Y50R (antibody, name in Kabat numbering, V domains shown)
VH: B1 VH with Y51R, L52I
VL: B1 VL
notes: IgG1 kappa
B25: SA301a heavy chain variant N33bD, C34S (antibody, human IgG1, V domains shown)
VH: B1 VH with N34D, L52I
VL: B1 VL
notes: library variant, human IgG1/kappa, from supernatant
B26: SA302a heavy chain variant N33bH, C34A (antibody, human IgG1, V domains shown)
VH: B1 VH with N34H, S35A, L52I
VL: B1 VL
notes: as for B25
B27: SA301a heavy chain variant N33bY, C34S (antibody, human IgG1, V domains shown)
VH: B1 VH with N34Y, L52I
VL: B1 VL
notes: as for B25
B28: SA301a heavy chain variant N33bQ, C34S (antibody, human IgG1, V domains shown)
VH: B1 VH with N34Q, L52I
VL: B1 VL
notes: as for B25
B29: SA301a heavy chain variant N33bK, C34S (antibody, human IgG1, V domains shown)
VH: B1 VH with N34K, L52I
VL: B1 VL
notes: as for B25
B30: SA301a heavy chain variant N33bT, C34S (antibody, human IgG1, V domains shown)
VH: B1 VH with N34T, L52I
VL: B1 VL
notes: as for B25
B31: SA301a heavy chain variant N33bE, C34S (antibody, human IgG1, V domains shown)
VH: B1 VH with N34E, L52I
VL: B1 VL
notes: as for B25
B32: SA301a heavy chain variant N33bV, C34S (antibody, human IgG1, V domains shown)
VH: B1 VH with N34V, L52I
VL: B1 VL
notes: as for B25
B33: SA301a heavy chain variant N33bP, C34S (antibody, human IgG1, V domains shown)
VH: B1 VH with N34P, L52I
VL: B1 VL
notes: as for B25
B34: SA302a heavy chain variant N33bI, C34A (antibody, human IgG1, V domains shown)
VH: B1 VH with N34I, S35A, L52I
VL: B1 VL
notes: as for B25
B35: SA301a heavy chain variant N33bG, C34S (antibody, human IgG1, V domains shown)
VH: B1 VH with N34G, L52I
VL: B1 VL
notes: as for B25
B36: SA301a heavy chain variant N33bM, C34S (antibody, human IgG1, V domains shown)
VH: B1 VH with N34M, L52I
VL: B1 VL
notes: as for B25
B37: SA302a heavy chain variant N33bF, C34A (antibody, human IgG1, V domains shown)
VH: B1 VH with N34F, S35A, L52I
VL: B1 VL
notes: as for B25
B38: SA301a heavy chain variant N33bL, C34S (antibody, human IgG1, V domains shown)
VH: B1 VH with N34L, L52I
VL: B1 VL
notes: as for B25
B39: SA301a heavy chain variant N33bS, C34S (antibody, human IgG1, V domains shown)
VH: B1 VH with N34S, L52I
VL: B1 VL
notes: as for B25

What follows are binders tested against T1, human IL-18BP (assay: BLI, apparent KD).

Row | Binder | Kd [nM]
1 | B1 | 0.69
2 | B2 | 2.06
3 | B3 | 5.28
4 | B4 | 2
5 | B5 | 2.97
6 | B6 | 3.44
7 | B7 | 2.17
8 | B8 | 1.13
9 | B9 | 1.08
10 | B10 | 1.08
11 | B11 | 0.57
12 | B12 | 0.67
13 | B13 | 1.46
14 | B14 | 1.03
15 | B15 | 0.56
16 | B16 | 2.56
17 | B17 | 0.3
18 | B18 | 0.49
19 | B19 | 3.37
20 | B20 | 1.87
21 | B21 | 3.73
22 | B22 | 2.18
23 | B23 | 1.96
24 | B24 | 1.19

Molecular target: T2, cynomolgus IL-18BP
Experiment: BLI, apparent KD

Row | Binder | Kd [nM]
25 | B1 | 0.64
26 | B2 | 1.8
27 | B3 | 16.5
28 | B4 | 1.57
29 | B5 | 3.8
30 | B6 | 8.97
31 | B7 | 2.48
32 | B8 | 1.12
33 | B9 | 2.43
34 | B10 | 4.49
35 | B11 | 0.82
36 | B12 | 0.78
37 | B13 | 1.27
38 | B14 | 2.85
39 | B15 | 0.62
40 | B16 | 1.7
41 | B17 | 0.55
42 | B18 | 0.59
43 | B19 | 6.42
44 | B20 | 3.87
45 | B21 | 1.93
46 | B22 | 1.81
47 | B23 | 10.2
48 | B24 | 4.98

Molecular target: T3, cynomolgus IL-18BP
Experiment: BLI single-concentration screen, apparent KD

Row | Binder | Kd [nM]
49 | B25 | 0.1
50 | B26 | 0.6
51 | B27 | 0.9
52 | B28 | 1.1
53 | B29 | 0.9
54 | B30 | 0.4
55 | B31 | 0.2
56 | B32 | 0.3
57 | B33 | 1.3
58 | B34 | 0.4
59 | B35 | 0.5
60 | B36 | 1.4
61 | B37 | 1.4
62 | B38 | 0.6
63 | B39 | 1

What follows are binders tested against T4, human IL-18BP (interleukin-18 binding …) (assay: BLI single-concentration screen, apparent KD).

Row | Binder | Kd [nM]
64 | B26 | 0.8
65 | B27 | 1.2
66 | B28 | 1.9
67 | B29 | 0.4
68 | B30 | 0.3
69 | B31 | 0.1
70 | B32 | 0.4
71 | B33 | 2.5
72 | B34 | 0.6
73 | B35 | 0.2
74 | B36 | 1.9
75 | B37 | 1.5
76 | B38 | 0.8
77 | B39 | 1.4
